These results are taken from article PMC6049929, “Exchange of functional domains between a bacterial conjugative relaxase and the integrase of the human adeno-associated virus”.

In data set [1] the target is TrwC/Rep chimera (untagged) (plasmid R388 / human adeno-associated virus (AAV)) (UniProt P03132). Put plainly: fluorescence polarization. The settings on record: EMSA: 10 mM Hepes-KOH pH 7.5, 10 mM KCl, 3.3 mM MgCl2, 1 mM EDTA, 2.5 mM DTT, 400 ng poly(dI-dC), 15 mM (Rep68) or 75 mM (chimera) NaCl, room temperature 20 min. On the technique in general: Fluorescence polarisation rises when a labelled molecule tumbles more slowly, as on binding a larger partner.

In data set [2] the target is His-TrwC/Rep chimera (plasmid R388 / human adeno-associated virus (AAV)) (UniProt P03132). Put plainly: EMSA. The following applies: EMSA: 10 mM Hepes-KOH pH 7.5, 10 mM KCl, 3.3 mM MgCl2, 1 mM EDTA, 2.5 mM DTT, 400 ng poly(dI-dC), 15 mM (Rep68) or 75 mM (chimera) NaCl, room temperature 20 min. Background: Mobility shift assays separate free from complexed probe on a gel.

For data set [3] the target is unchanged. As to the kind of experiment: competition. The settings on record: EMSA: 10 mM Hepes-KOH pH 7.5, 10 mM KCl, 3.3 mM MgCl2, 1 mM EDTA, 2.5 mM DTT, 400 ng poly(dI-dC), 15 mM (Rep68) or 75 mM (chimera) NaCl, room temperature 20 min.
Data set [4] concerns the target TrwC/Rep chimeric protein (N-terminal relaxase domain of R388 TrwC fused to the C-terminal domain of AAV2 Rep68) (bacterial plasmid R388 (E. coli) | adeno-associated virus 2 (AAV2)) (UniProt Q47673). As to the kind of experiment: AUC; sedimentation velocity, 20°C, 492 nm; 3.32 μM TrwC/Rep chimera with 0.83 μM 5' 6-carboxyfluorescein oriTw(34-mer) ssDNA (protein/DNA 4:1); oligomer size from the theoretical S of a globular complex.

The target in data set [5] is His-Rep68 (human adeno-associated virus (AAV), UniProt P03132 1-536). As to the kind of experiment: EMSA; 100 ng protein, 15 mM NaCl; EMSA: 10 mM Hepes-KOH pH 7.5, 10 mM KCl, 3.3 mM MgCl2, 1 mM EDTA, 2.5 mM DTT, 400 ng poly(dI-dC), 15 mM (Rep68) or 75 mM (chimera) NaCl, room temperature 20 min; FP: 25 mM HEPES pH 7.0, 200 mM NaCl, 25 C; AUC: 25 mM Tris-HCl pH 7.9, 200 mM NaCl, 1 mM TCEP, 20 C. The settings on record: protein: recombinant, tags: N-terminal His (pET15b, PreScission site).

The term Kd denotes the equilibrium constant for the complex coming apart. Read a high Kd as lower affinity. Broadly, the stoichiometry N is the number of molecules, sites or subunits per partner or assembly.

Bounds are passed on as bounds.

In turn, “AGCGCACCGAAAGGTGCGTATTGTCTATAGCCCA [oriTw 34-mer (oriTw(25+8) plus 5' dA)]” came in with a Kd in data set [1] of 16 nM.
As for “GCGCACCGAAAGGTGCGTATTGTCTATAGCCCA [oriTw(25+8)]”, the binding signal in data set [2] came to 49 % shifted; in data set [3] it was 24 % shifted.
In turn, “TrwC/Rep chimeric protein (N-terminal relaxase domain of R388 TrwC fused to the C-terminal domain of AAV2 Rep68) (from UniProt Q47673 2-293; P03132 209-536) (enzyme)” came in with a stoichiometry N in data set [4] above 6 subunits.
For the molecule GCGCACCGAAAGGTGCGTATTGTCTATAGCCCA (ssDNA) [oriTw(25+8)], the binding result in data set [5] (label: 32P, inverted repeat IR2) is “no binding”.

B1: AAV ori RBSmut (dsDNA)
DNA 1: CTAGATGATGGAGTTGGCCACTCCCTCTCTCCTCCCTCCCTCCCTCACTG
DNA 2: TCGACAGTGAGGGAGGGAGGGAG
Regarding B1, the binding result in data set [5] (label: 32P 5' end, top strand) is listed as “no binding”.
